# US20210340173A1
# How the values were obtained:
# [1] = target: CCR5-RLuc8 on CHO-CCR5-RLuc8/YFP-CAAX cells (UniProt P51681); test: cell-based or functional assay
# CCR5 on HEK-CCR5 cells = CCR5 on HEK-CCR5 cells (UniProt P51681); test: cell-based or functional assay
Substance,CCR5 internalization (bystander BRET) at 300 nM (bottom of the scale) [1],Ca2+ flux signaling at 300 nM on HEK-CCR5 cells (bottom of the scale) (CCR5 on HEK-CCR5 cells),CCR5 internalization (bystander BRET) at 300 nM (top of the scale) [1],Ca2+ flux signaling at 300 nM on HEK-CCR5 cells (top of the scale) (CCR5 on HEK-CCR5 cells)
5P12-RANTES reference standard (from UniProt P13501 34-91) (ligand),0%,0%,,
PSC-RANTES reference standard (ligand),,,100%,100%
